{"source": "patent US20110200615A1", "binders": {"B1": {"name": "1B18 IgG (antibody, V domains shown)", "VH": "EVQLVQSGGGLVQPGGSRRLSCAASGFYFNAYWMTWVRQAPGKGLEWVANINLDGTEIYYLDSVKGRFTVSRDNVKNSVFLQMSSLRVEDTAVYFCARLEWGGRNGWVSPWGQGTLVTVSS", "VL": "DVVMTQSPSSVSASVGDRVTITCRASQSISSYLNWYQQRPGKAPKLLIFAASSLQSAVPSRFSGSGSGTDFTLTISSLQPEDFATYYCQQSYSTPPTFGQGTKVEIKR"}, "B2": {"name": "2B23 IgG (antibody, V domains shown)", "VH": "EVQLLESGGGLVQPGGSLRLSCAASGFTFSNYPMSWVRQAPGKGLAWVSSLTASGDNTFYADSVKGRFTISRDNSNNTLYLQMHSLRAEDTAVYYCAKALVGRYDISTGYYRPVMDSWGQGTLVTVSS", "VL": "DIQMTQSPPSLSASVGDRVTITCRTSQGFTSALAWYQQKPGEPPKLLIYDASKLESGVPSRFSGSGSGTNFALTISSLQPEDFATYFCQQSNSYPLTFGGGTKVEIKR"}, "B3": {"name": "B11E8 IgG (antibody, V domains shown)", "VH": "EVQLVQSGGGVVQPGRSLRLSCAASGFIFRTYGMHWVRQAPGKGLEWVAFVSSDGNNKFYSDSVKGRFTISRDNAKNTLYLQMNSLETEDTAMYYCAKDRYPIDCSGGSCFSYGMDVWGQGTTVTVSS", "VL": "EIVLTQSPATLSVSPGERATLSCRASQSVSKFLAWYQQKRGQAPRLLIYGASTRATGIPARFSGSGSGTEFALTISSLQSEDFADYYCQQYDNWPITFGQGTRLEIKR"}, "B4": {"name": "1B10.1 IgG (antibody, V domains shown)", "VH": "QVQLVESGGGVVQPGRSLRLSCAASGFTFSHYGMHWVRQSPGKGLEWVAVIWYDGRNPYYAASVKGRFTISRDNDKNTLYLQMNSLRAEDTAVYYCVKDLTRFHDTTFGVFEMWGPGTTVTVSS", "VL": "EIVLTQSPSFVSASVGDRVTITCRASQGISSWLAWYQQKPGKAPKLLIYAASSLQSGVPSRFSGSGSGTEFTLTISSLQPDDFATYYCQQYSSLYTFGQGTKVDIKR"}, "B5": {"name": "2B25.1 IgG (antibody, V domains shown)", "VH": "QVQLQESGPGLVKPSQTLSLSCSVSGASITSGTFYWSWIRQHPGKDLEWIGYIYYSGTTYYNPSLKSRVTLSVDTSKNQFSLKVTSLTAADTAVYHCARGVPIYDSSGTYRGTYFDYWGQGTLVTVSS", "VL": "ESVLTQPPSVSAAPGQKVTISCSGSSSNIGNNYVSWYQQLPGTAPKLLIYDNNRRPSGIPDRFSGSKSGTSATLGITGLQTGDEADYYCGTWDSSLSEVVFGGGTKVTVLG"}, "B6": {"name": "B12.1 IgG (antibody, V domains shown)", "VH": "QVNLRESGGGVVQPGRSLRLSCAASGFTFSSYALHWVRQTPGKGLEWVALISYDGSNKYYADSVKGRFTISRDNSKNMLYLQMNSLRAEDTAVYYCAKDRSHYGDYVGYLDYWGQGTLVTVSS", "VL": "AYVLTQPPSVSVAPGKTAAITCEGNNVGNKNVHWYQQRPGQAPVLVVHDDSDRPSGIPERFSGSNSGNTATLTINRVEAGDEADYYCQVWDSSSAQWVFGGGTKLTVLG"}, "B7": {"name": "2B27 scFv (yeast displayed) (scFv)", "scFv": "EVQLQESGPGLVKPSETLSVTCAVSGGSISSSNYSWAWIRQPPGKGLEWIGTMYYSGSTHYHPSLKSRVTISVDTSKSQLSLKLSSVTAADTAVYYCARRRLLGPSPYYFDYWGQGTLVTVSSGGGGSGGGGSGGGGSQSVVTQPPSVSGAPGQRVTISCSGSSSNIGAGYDVHWYQQLPGTAPKLLIYGNNNRPSGVPDRFSGSKSGTSASLAITGLQAEDEADYYCQSYDSSLSAYVFGTGTKLTVLG"}, "B8": {"name": "2B24 scFv (yeast displayed) (scFv)", "scFv": "QVQLVESGGGVVQPGRSLRLSCAASGLTFSVYGMHWVRQAPGKGLEWVAVISHTGSEEYYADSVKGRFSISRDNSNNTLFLQMNSLRPEDTAVYYCVKDGPMAAIPFYYFDFWGQGTLVTVSSGGGGSGGGGSGGGGSQSVVTQPPSVSAAPGQKVTISCSGSSSNIGNNYVSWYQQLPGTAPKLLIYDNNKRPSGIPDRFSGSKSGTSATLGITGLQTGDEADYYCGTWDSSLSAGVFGGGTKLTVLG"}, "B9": {"name": "2B25 scFv (yeast displayed) (scFv)", "scFv": "QVQLQESGPGLVKPSQTLSLSCSVSGASITSGTFYWSWIRQHPGKDLEWIGYIYYSGTTYYNPSLKSRVTLSVDTSKNQFSLKVTSLTAADTAVYHCARGVPIYDSSGTYRGTYFDYWGQGTLVTVSSGGGGSGGGGSGGGGSQPGLTQPPSASGTPGQRVTISCSGSSSNVGSNTVNWYQQLPGTAPKLLIYRNDQRPSGVPDRFSGSKSGASASLAISGLRSEDEADYYCAAWDDSLNGLLFGGGTQLTVLG"}, "B10": {"name": "1B10 scFv (yeast displayed) (scFv)", "scFv": "QVQLVESGGGVVQPGRSLRLSCAASGFTFSHYGMHWVRQSPGKGLEWVAVIWYDGRNPYYAASVKGRFTISRDNDKNTLYLQMNSLRAEDTAVYYCVKDLTRFHDTTFGVFEMWGPGTTVTVSSGGGGSGGGGSGGGGSEIVLTQSPSSLSASVGDRITITCRASQSISSWLAWYQQKPGKAPMVLIYKASSLENGVPSRFSGSGSGTEFTLTISSLQPDDFATYYCQQYSTYSRTFGQGTKVEIKR"}, "B11": {"name": "1B11 scFv (yeast displayed) (scFv)", "scFv": "QVQLLQSAGGVVQPGRSLRLSCAASGFIFRTYGMHWVRQAPGKGLEWVAFVSSDGNNKFYSDSVKGRFTIPRDNAKNTLYLQMNSLETEDTAVYYCAKDRYPIDCSGGSCFSYGMDVWGQGTTVTVSSGGGGSGGGGSGGGGSDIVMTQSPSTLSASVGDRVTVTCRASQSINSWLAWYQQKPGKAPKLLIYEASSLESGVPSRFSGSGSGTEFTLTISSLQPDDFATYYCQQYDSYWLTFGGGTKVEIK"}, "B12": {"name": "2B23 scFv (yeast displayed) (scFv)", "scFv": "EVQLLESGGGLVQPGGSLRLSCAASGFTFSNYPMSWVRQAPGKGLAWVSSLTASGDNTFYADSVKGRFTISRDNSNNTLYLQMHSLRAEDTAVYYCAKALVGRYDISTGYYRPVMDSWGQGTLVTVSSGGGGSGGGGSGGGGSDIQMTQSPPSLSASVGDRVTITCRTSQGFTSALAWYQQKPGEPPKLLIYDASKLESGVPSRFSGSGSGTNFALTISSLQPEDFATYFCQQSNSYPLTFGGGTKVEIKR"}, "B13": {"name": "1B18 scFv (yeast displayed) (scFv)", "scFv": "EVQLVQSGGGLVQPGGSRRLSCAASGFYFNAYWMTWVRQAPGKGLEWVANINLDGTEIYYLDSVKGRFTVSRDNVKNSVFLQMSSLRVEDTAVYFCARLEWGGRNGWVSPWGQGTLVTVSSGGGGSGGGGSGGGGSDVVMTQSPSSVSASVGDRVTITCRASQSISSYLNWYQQRPGKAPKLLIFAASSLQSAVPSRFSGSGSGTDFTLTISSLQPEDFATYYCQQSYSTPPTFGQGTKVEIKR"}}}
{"molecular_target": "Botulinum neurotoxin type B, subtype B3 (BoNT/B3) (Clostridium botulinum)", "experiment": "KinExA flow fluorimetry; IgG in solution", "units": {"Kd": "nM"}}
{"binder": "B1", "Kd": 0.972}
{"binder": "B2", "Kd": 0.048}
{"binder": "B3", "Kd": 0.0156}
{"binder": "B4", "Kd": 1.2}
{"binder": "B5", "Kd": 0.0177}
{"binder": "B6", "Kd": 0.0462}
{"molecular_target": "Botulinum neurotoxin type B, subtype B4 (BoNT/B4) (Clostridium botulinum)", "experiment": "KinExA flow fluorimetry; IgG in solution", "units": {"Kd": "nM"}}
{"binder": "B1", "Kd": 0.021}
{"binder": "B2", "Kd": 0.0552}
{"binder": "B4", "Kd": 0.00047}
{"binder": "B5", "Kd": 0.03}
{"binder": "B6", "Kd": 0.625}
{"molecular_target": "Botulinum neurotoxin type B, subtype B3 (BoNT/B3) (Clostridium botulinum)", "experiment": "flow cytometry; yeast-displayed scFv, soluble toxin", "units": {"Kd": "nM"}}
{"binder": "B7", "Kd": 2.32}
{"binder": "B8", "Kd": 4}
{"binder": "B9", "Kd": 0.93}
{"binder": "B10", "Kd": "> 5000"}
{"binder": "B11", "Kd": 4.43}
{"binder": "B12", "Kd": 0.25}
{"binder": "B13", "Kd": 3.04}
{"molecular_target": "Botulinum neurotoxin type B, subtype B4 (BoNT/B4) (Clostridium botulinum)", "experiment": "flow cytometry; yeast-displayed scFv, soluble toxin", "units": {"Kd": "nM"}}
{"binder": "B7", "Kd": 0.77}
{"binder": "B8", "Kd": 0.72}
{"binder": "B9", "Kd": 0.68}
{"binder": "B10", "Kd": 4.69}
{"binder": "B12", "Kd": 0.19}
{"binder": "B13", "Kd": 1.7}
